Like-named read-outs stand apart in the source and are kept apart here.
T1: human CD70 expressed on the surface of cells (human, UniProt P32970 1-193)
T1 sequence (looked up): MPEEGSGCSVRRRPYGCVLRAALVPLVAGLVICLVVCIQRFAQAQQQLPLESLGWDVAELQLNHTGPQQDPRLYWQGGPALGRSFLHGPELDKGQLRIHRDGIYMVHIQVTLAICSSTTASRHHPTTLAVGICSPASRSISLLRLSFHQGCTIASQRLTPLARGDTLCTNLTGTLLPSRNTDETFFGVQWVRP

T2: recombinant human CD70 (Flag-TNC-CD70) (human, UniProt P32970 39-193)
T2 construct: extracellular domain; Captured by anti-Flag mAb in ELISA; as 'recombinant human CD70' immobilised on Biacore CM5 chips; TNC is for trimerisation; also called recombinant CD70; human recombinant CD70; not shown: Flag tag and TNC trimerisation domain
T2 sequence (looked up): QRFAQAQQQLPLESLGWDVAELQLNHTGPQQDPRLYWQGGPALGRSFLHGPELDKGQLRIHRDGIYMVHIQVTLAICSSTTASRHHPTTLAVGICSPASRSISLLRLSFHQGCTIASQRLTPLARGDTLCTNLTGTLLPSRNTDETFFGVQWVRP


Assays:
[1] = molecular target: T1, human CD70 expressed on the surface of …; assay: cell-based or functional assay
[2] = molecular target: T1, human CD70 expressed on the surface of …; assay: flow cytometry on MHH-PREB-1 cells; anti-human IgG-FITC
Description: In a further experiment, NHL-derived MHH-PREB-1 cells (1W cells) were incubated with a concentration gradient of chimeric llama-human CD70 inhibiting mAbs (20 μg/ml-0.25 ng/ml) and binding of the mAbs to the cells was detected using anti-human IgG-FITC antibody.

[3] = molecular target: T3, rhesus recombinant CD70 (FLAG-TNC-rhesus CD70) (rhesus); assay: inhibition ELISA; FLAG-TNC-rhesus CD70; competitor CD27-Fc
T3 construct: also called rhesus Flag-TNC-CD70
Excerpt: In this assay, Flag-TNC-CD70 is captured by an anti-Flag mAb and binding of CD27-Fc is detected via a biotinylated anti-CD27 mAb and strep-HRP in the absence or presence of CD70 Fabs (FIGS. 2 and 3) or CD70 mAbs (FIG. 4). In FIG. 2B it can be seen that 27B3, which has an identical VH as 9D1, but contains a somewhat different light chain, seems to block binding of CD27 to CD70 more efficiently, which was in line with the better off rate of this Fab as measured on Biacore (data not shown). Table 3 indicates the blocking potency (expressed as IC50) for the various llama-human chimeric mAbs tested in the CD70 inhibition ELISA. […] FIG. 3 is a composite of an experiment testing llama CD70 Fabs for blocking activity (in the inhibition ELISA, see white bars) and for CD70 binding (binding ELISA, black bars). For the binding ELISA, Flag-TNC-CD70 is captured by an anti-Flag mAb and binding of the Fabs is detected using an anti-myc-HRP mAb, which recognizes the MYC tag fused to the C-terminus of the Fd fragment. For comparison purposes, known monoclonal antibodies to CD70 (SGN70 described in US 2010/0129362 A1, clone 1F6; and MDX69A7 described in WO2008/074004 FIGS. 5A and 5B) were tested in parallel. […] Of interest is clone 59D10, which as Fab has no blocking activity, but when converted into a chimeric IgG was antagonistic (see Table 3). […]

[4] = molecular target: T2, recombinant human CD70 (Flag-TNC-CD70); assay: inhibition ELISA; Flag-TNC-CD70 captured by anti-Flag mAb; competitor CD27-Fc
How it was run: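 Flag-TNC-CD70 captured by anti-Flag mAb, then incubated with CD27-Fc with or without titrated Fabs (periplasmic extracts) or chimeric mAbs. Bound CD27-Fc detected via biotinylated anti-CD27 mAb and strep-HRP, and blocking potency expressed as IC50.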

[5] = molecular target: T1, human CD70 expressed on the surface of …; assay: flow cytometry on 786-O cells, anti-human Fc-FITC
Description: Fluorescence of 10,000 cells/condition was measured using a flow cytometer and the median fluorescence was plotted.

[6] = molecular target: T2, recombinant human CD70 (Flag-TNC-CD70); assay: inhibition ELISA; Flag-TNC-CD70 captured by anti-Flag mAb; competitor CD27-Fc; remark: listed apart in the source
Description: From selected phage transfected into TG1, individual colonies were picked randomly for growth in 96 well plates. After IPTG induction according to standard protocols periplasmic fractions (penis) containing Fabs were prepared. […] In this assay, Flag-TNC-CD70 is captured by an anti-Flag mAb and binding of CD27-Fc is detected via a biotinylated anti-CD27 mAb and strep-HRP in the absence or presence of CD70 Fabs (FIGS. 2 and 3) or CD70 mAbs (FIG. 4). In FIG. 2B it can be seen that 27B3, which has an identical VH as 9D1, but contains a somewhat different light chain, seems to block binding of CD27 to CD70 more efficiently, which was in line with the better off rate of this Fab as measured on Biacore (data not shown). Table 3 indicates the blocking potency (expressed as IC50) for the various llama-human chimeric mAbs tested in the CD70 inhibition ELISA. […] FIG. 3 is a composite of an experiment testing llama CD70 Fabs for blocking activity (in the inhibition ELISA, see white bars) and for CD70 binding (binding ELISA, black bars). For the binding ELISA, Flag-TNC-CD70 is captured by an anti-Flag mAb and binding of the Fabs is detected using an anti-myc-HRP mAb, which recognizes the MYC tag fused to the C-terminus of the Fd fragment. For comparison purposes, known monoclonal antibodies to CD70 (SGN70 described in US 2010/0129362 A1, clone 1F6; and MDX69A7 described in WO2008/074004 FIGS. 5A and 5B) were tested in parallel. […] Of interest is clone 59D10, which as Fab has no blocking activity, but when converted into a chimeric IgG was antagonistic (see Table 3). Amino acid sequences of the VH and VL domains of binding and blocking llama-derived Fab clones are shown elsewhere herein (Tables 6-9).

[7] = molecular target: T2, recombinant human CD70 (Flag-TNC-CD70); assay: Biacore; recombinant human CD70 on CM5 chip; Fab injected
Description: Off-rates of the purified llama-derived anti-CD70 blocking Fabs were determined using the Biacore. Recombinant human CD70 was immobilized on a CM5 Biacore chip. The immobilization was performed in accordance with a method provided by Biacore and by using the NHS/EDC kit (Biacore AB): after activation of the chip, a solution of 50 μg/ml of recombinant CD70 in 10 mM acetate buffer with pH of 5 was prepared and 1 μl of this solution (50ng) was injected resulting in a surface density of approximately 1000 RU.
Fabs for the CD70 mAbs ARGX-110, MDX2H5 and SGN70 were prepared by […] digestion (SGN70 and MDX69A7 are described elsewhere herein, MDX2H5, also referred to as MDX1411, is described in WO2008/074004 FIGS. 1A and 1B). Fabs, at a concentration of approximately 100-400 μg/ml, were diluted 6-fold in hepes-buffered saline (0.1M Hepes, 1.5M NaCl, 30 mM EDTA, 0.5% v/v surfactant P20). They were injected (30 μl) and passed through the flow cells at a flow rate of 30 μl/min. After binding of the Fab to CD70, the off-rate was monitored for a period of 10 minutes. After the dissociation, the flow cell surfaces were regenerated by injecting 5 μl of 10 mM NaOH. Sometimes multiple injections of NaOH were needed to regenerate the surfaces depending on the affinity of the Fabs. Off-rate analysis was done by applying the BIAevaluation software. First, the sensogram of the blank runs were subtracted from those obtained with the coated flow cell. […] Moreover, the off-rate of CD27 for CD70 was determined as well.

[8] = molecular target: T2, recombinant human CD70 (Flag-TNC-CD70); assay: Biacore; CD70 coated CM5 chip; Fab in periplasmic fraction
Description: Phage eluted from rounds 3, 4 and 5 of selection were transfected into TG1 and plated clonally; individual clones were picked randomly for further analysis. Periplasmic fractions containing Fabs were prepared from IPTG induced small scale cultures the off rate of each Fab was determined using a CD70 coated CM5 chip in a Biacore binding assay. Clones with Fab having off rates similar to that of 27B3 were sequenced.

[9] = molecular target: T1, human CD70 expressed on the surface of …; assay: cell-based or functional assay; remark: listed apart in the source

Binder	IC50 (ng/ml), IL-8 secretion in Raji / HT1080-CD27 co-culture assay [1]	EC50 [2]	IC50 [3]	IC50 [4]	EC50 (read off the curve) [5]	IC50 [6]	koff [7]	koff [8]	IC50, IL-8 secretion in Raji / HT1080-CD27 co-culture assay [9]
9D1 chimeric llama-human mAb (antibody, human IgG1, V domains shown, also called mAb 9D1) VH: EVQLVESGGGLVQPGGSLRLSCAASGFTFSVYYMNWVRQAPGKGLEWVSDINNEGGTTYYADSVKGRFTISRDNAKNTLTLQMNSLKPEDTALYYCVRDAGYSNHVPIFDSWGQGTQVIVAS VL: QAVVTQEPSLSVSPGGTVTLTCGLSSGSVTSSHYPGWYQQTPGQAPRLLIFNTNSRHSGVPSRFSGSISGNKAALTITGAQPEDEADYYCALLNIDDGSTMFGGGTHLTVLG	29 ng/mL			0.109 µg/mL	~0.03 µg/mL	0.73 nM			
27B3 Fab (Fab, V domains shown, Llama-derived Fab; also called Fab 27B3) VH: EVQLVESGGGLVQPGGSLRLSCAASGFTFSVYYMNWVRQAPGKGLEWVSDINNEGGTTYYADSVKGRFTISRDNAKNTLTLQMNSLKPEDTALYYCVRDAGYSNHVPIFDSWGQGTQVIVAS VL: QAVVTQEPSLTVSPGGTVTLTCGLKSGSVTSTNFPTWYQQTPGQAPRLLIYNTNTRHSGVPSRFSGSISENKAALTITGAQPEDEAEYFCALFISNPSVEFGGGTQLTVLS						~0.4 nM	8e-05 s⁻¹	0.00014 s⁻¹	
9G2 chimeric llama-human mAb (antibody, human IgG1, V domains shown) VH: QVQLVESGGGLMQPGGSLRLSCAASGFTFSSSAMSWVRQAPGKGLEWVSSIYSDSSYTYYADSVKSRFTISTDNAKNTLYLQMNSLKPDDTAVYYCAGSSDYEGSFASWGQGTQVTVSS VL: QSVVTQPPSLSASPGSSVRLTCTLSSGNSVGNYDISWYQQKAGSPPRYLLYYYSDSVKHQGSGVPSRFSGSSDASANAGLLLISGLQPEDEADYYCSAYKSGSHVFGGGTKLTVLG	3 ng/mL			0.04 µg/mL	~0.1 µg/mL				0.02 nM

Other lines, results leading:

IC50 (ng/ml), IL-8 secretion in Raji / HT1080-CD27 co-culture assay [1]	EC50 [2]	IC50 [3]	IC50 [4]	EC50 (read off the curve) [5]	IC50 [6]	koff [7]	koff [8]	IC50, IL-8 secretion in Raji / HT1080-CD27 co-culture assay [9]	Binder
5 ng/mL	0.083 µg/mL	0.135 µg/mL	0.154 µg/mL						57B6 chimeric llama-human mAb (antibody, human IgG1, V domains shown) VH: QLQLVESGGGLVQPGGSLRLSCAASGFSFSHYAMSWVRQAPGKGLEWVSGDNTYDGGTRYQDSVKGRFTISRDNGKNTLYLQMNSLKPEDTAVYYCAKDTGRGIMGEYGMDYWGKGTLVTVSS VL: QTVVTQEPSLSVSPGGTVTLTCGLKSGSVTSSNYPAWYQQTPGQAPRLLIYNTNSRHSGVPSRFSGSISGNKAALTITGAQPEDEADYYCALYMGSGSANAMFGGGTHLTVLG
10 ng/mL	0.074 µg/mL		0.107 µg/mL						59D10 chimeric llama-human mAb (antibody, human IgG1, V domains shown) VH: EVQLVESGGGLVQPGGSLRLSCAASELSFSISEMTWVRQAPGKGLEWVSGISGVTGGSSTSYADSVKGRFTISRDNDKNTLYLQMNSLIPEDTAVYYCATTSGTYYFIPEYEYWGQGTQVTVSS VL: QSVLTQPPSVSGSPGKTVTISCAGTSSDVGYGYYVSWYQQFPGMAPKLLIYDVNKRASGIADRFSGSKAGNTASLTISGLQSEDEADYYCASYRSSANAVFGGGTHLTVLG
